Residue numbers refer to the chain shown, from its start.

The target in experiment [1] is T1, monomeric human TNFR2 extracellular domain (human, UniProt P20333 23-257).
T1 construct: extracellular domain; Analyte in the Octet experiments; also called human TNFR2 ECD
T1 sequence (looked up): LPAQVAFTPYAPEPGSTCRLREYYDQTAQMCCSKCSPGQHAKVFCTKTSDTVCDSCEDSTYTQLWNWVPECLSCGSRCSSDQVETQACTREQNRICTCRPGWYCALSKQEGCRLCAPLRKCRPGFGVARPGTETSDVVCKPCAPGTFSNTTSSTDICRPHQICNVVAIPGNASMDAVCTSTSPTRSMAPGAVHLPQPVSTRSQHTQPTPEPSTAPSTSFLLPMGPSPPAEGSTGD
The experiment is described as follows: BLI (Octet Red 96), Human TNFR2 Kd (1-1).

For experiment [2], the target named is T1, monomeric human TNFR2 extracellular …. The experiment is described as follows: BLI (Octet Red 96), CHO supernatant antibody on anti-human Fc biosensor, 100 nM monomeric human TNFR2 ECD, 1:1 model. As to the method:
Analysis of binding to human TNFR2 ECD was performed using Octet Red 96 instrument (ForteBio). The Octet systems use propriety BLI to analyze biomolecular interaction. CHO supernatants of hSBT-002a, hSBT-002b, hSBT-002c, hSBT-002d, hSBT-002e, and chSBT-002n were diluted to 20 ug/ml based on titers with expression media and immobilized using anti-human Fc biosensors. These were incubated with 100 nM monomeric human TNFR2 in PBS. The experiments comprised of 5 steps: (1) baseline acquisition (60 s); (2) antibodies loading onto anti-human Fc biosensor (120 s); (3) second baseline acquisition (60 s); (4) association of interacting monomeric human TNFR2 ECD protein for kₒₙ measurement (120 s); (5) Dissociation of interacting monomeric human TNFR2 ECD for koff measurement (300 s). Data were analyzed using Octet Data Analysis Software 9.0 (ForteBio) and fitted to the 1:1 binding model. Equilibrium dissociation constants (Kd) were calculated by the ratio of […].

For experiment [3] the target is unchanged. The experiment is described as follows: BLI (Octet Red 96), antibody captured on Fc biosensor, monomeric TNFR2 ECD in solution, 1:1 model. As to the method: (§1) Analysis of binding to the human and cynomolgus TNFR2 ECD was performed using an Octet Red 96 Instrument™ (ForteBio). […] The experiments were performed using five steps: (1) baseline acquisition (60 s); (2) antibody loading on to anti-human or anti-mouse Fc biosensors (120 s); (3) second baseline acquisition (60 s); (4) association of interacting monomeric human or cynomolgus TNFR2 ECD protein for kₒₙ measurement (120 s); and (5) dissociation of interacting monomeric human or cynomolgus TNFR2 ECD for koff measurement (240-3600 s).
(§2) The interacting monomeric human or cynomolgus ECD was used at 5-6 concentrations of a 3-fold concentration series. The data were analyzed using Octet Data Analysis Software 9.0™ (ForteBio) and fit to the 1:1 binding model. The equilibrium dissociation constants (Kd) were calculated by the ratio of […].

Experiment [4] deals with T2, monomeric cynomolgus TNFR2 extracellular domain (cynomolgus monkey, UniProt A0A2K5VET2 132-366).
T2 construct: extracellular domain; Analyte in the Octet experiments; also called cynomolgus TNFR2 ECD; Cyno TNFR2
T2 sequence: T1 sequence (looked up) with S16G, S36P, P117Q, N164H, E210A, S216G, M223V
Described as above. As to the method: as §1, §2

Experiment [5] addresses T3, cynomolgus TNFR2 on cells (cynomolgus).
T3 construct: whole, on cells; also called cynomolgus TNFR2 on CD4+ and CD8+ T cells
The experiment is described as follows: flow cytometry on cynomolgus PBMC, antibody at 10 ug/mL, anti-human Fc-PE secondary. As to the method:
Cynomolgus peripheral blood mononuclear cells (PBMCs) from two independent donors were isolated by diluting whole blood (SNBL USA) 1:1 in PBS (Lonza), layering over Ficoll-Paque Plus (GE Healthcare), and centrifuging for 35 minutes at 400×g. The PBMC fraction was removed, washed 3 times in 2% FBS PBS and counted. 0.3×10⁶ PBMC were resuspended in Fixable Viability Stain 575V (BD) diluted 1:1000 in PBS and incubated for 10 minutes. PBMC were then washed twice in PBS to remove residual viability stain, resuspended in Horizon Brilliant Stain Buffer (BD) with 10 uL per test of human Fc receptor binding inhibitor (eBioscience), and incubated on ice for 20 minutes to block Fc receptors. […] PBMC were incubated 20 minutes on ice and then washed three times with 2% FBS PBS. To visualize TNFR2 chimeric antibody binding, PBMC were resuspended in goat anti-human Fc-PE F(ab′)₂ secondary reagent (Jackson ImmunoResearch) diluted 1:200 in 2% FBS PBS and incubated on ice for 20 minutes. Cells were then washed three times in 2% FBS PBS and resuspended in 200 uL 2% FBS PBS for flow cytometry analysis using a BD FACS Celesta instrument and FACS Diva software. T cells were analyzed for chimeric TNFR2 binding by gating on viable cells defined as lymphocytes using forward and side scatter and as T cells by anti-CD3 staining. CD4⁺ and CD8⁺ subsets were identified using commercial specific antibody conjugates.

In the next experiment the target is T4, human TNFR2 on cells (human, UniProt P20333 23-461).
T4 construct: whole, on cells; also called TNFR2 on Jurkat clone H6; human TNFR2 on CD4+ and CD8+ T cells
T4 sequence (looked up): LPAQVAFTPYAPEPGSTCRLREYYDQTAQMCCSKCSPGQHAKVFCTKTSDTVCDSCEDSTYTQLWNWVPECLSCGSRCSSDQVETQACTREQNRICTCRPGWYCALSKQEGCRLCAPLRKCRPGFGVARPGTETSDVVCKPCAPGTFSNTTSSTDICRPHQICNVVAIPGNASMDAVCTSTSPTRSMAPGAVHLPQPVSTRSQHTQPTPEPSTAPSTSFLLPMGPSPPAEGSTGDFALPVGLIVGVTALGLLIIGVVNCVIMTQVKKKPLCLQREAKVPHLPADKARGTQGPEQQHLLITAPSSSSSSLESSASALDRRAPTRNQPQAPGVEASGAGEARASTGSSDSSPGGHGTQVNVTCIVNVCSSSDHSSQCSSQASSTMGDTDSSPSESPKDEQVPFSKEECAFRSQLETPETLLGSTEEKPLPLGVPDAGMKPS
The experiment is described as follows: flow cytometry on human PBMC, antibody at 10 ug/mL, anti-human Fc-PE secondary. As to the method: The following day 0.3×10⁶ PBMC were counted and washed with PBS (Lonza). PBMCs were resuspended in Fixable Viability Stain 575V (BD) diluted 1:1,000 in PBS and incubated for 10 minutes. PBMCs were then washed twice in PBS to remove residual viability stain. PBMCs were then resuspended in Horizon Brilliant Stain Buffer (BD) with 10 uL per test of human Fc receptor binding inhibitor (eBioscience) and incubated on ice for 20 minutes to block Fc receptors. […] PBMCs were incubated 20 minutes on ice and then washed three times with 2% FBS PBS. To visualize TNFR chimeric antibody binding, PBMCs were resuspended in goat anti-human Fc-PE F(ab′)₂ secondary reagent (Jackson ImmunoResearch) diluted 1:200 in 2% FBS PBS and incubated on ice for 20 minutes. Cells were then washed three times in 2% FBS PBS and resuspended in 200 uL 2% FBS PBS for flow cytometry analysis using a BD FACS Celesta instrument and FACS Diva software. T cells were analyzed for chimeric TNFR2 binding by gating on viable cells defined as lymphocytes using forward and side scatter and as T cells by anti-CD3 staining. CD4⁺ and CD8⁺ subsets were identified by commercially available specific antibody conjugates.

For experiment [6], the target named is T5, soluble human TNFR2 (human, UniProt P20333 23-257).
T5 construct: also called soluble TNFR2
T5 sequence (looked up): T1 sequence (looked up)
The experiment is described as follows: competition ELISA, plate-bound soluble human TNFR2, biotinylated TNFα as competitor. As to the method:
(§3) Soluble human TNFR2 (Sino Biological, 10417-H08H) or cynomolgus TNFR2 (Sino Biological, 90102-C08H) was coated on Nunc-Immuno™ plates at 0.1 μg/ml, 0.5 ug/ml, 1 μg/ml, and 5 μg/ml. […] Plates were developed using TMB and stopped with 3 M HCl.
IC₅₀ values are reported in nM.

Experiment [7] addresses T5, soluble human TNFR2. The experiment is described as follows: competition ELISA: plate-bound soluble human TNFR2, competitor biotinylated TNFα; IC50 relative to unlabelled TNFα = 1.00. As to the method:
as §3

Experiment [8] addresses T5, soluble human TNFR2. The experiment is described as follows: competition ELISA: plate-bound soluble human TNFR2, competitor biotinylated TNFα, streptavidin-HRP, A450. As to the method: as §3

B1: chimeric SBT-002 Fc null (antibody, V domains shown)
VH: QVTLKESGPGILQPSQTLSLTCSFSGFSLSTSGMGVGWIRQPSGKGLEWLAHIWWDDDKFYNPSLKSQLTISKDTSRNQVFLKLTSVVTADTATYYCARLTGTRYFDYWGQGTTLTVSS
VL: DVQMTQSPSSLSASLGGKVTITCKASQDINKFIAWYQHKPGKGPRLLIHYTSTLQPGIPSKFSGSGSGRDYSFSISNLEPEDIATYYCLQYGNLWTFGGGTKLEIT
notes: also called chSBT-002n
With B1, the Kd in experiment [1] turned out to be 2.5 nM. In experiment [2], this molecule displayed a Kd of 1.92 nM and a dissociation rate constant (koff) of 0.000361 s⁻¹.

B2: hSBT-002b (antibody, V domains shown)
VH: QVTLKESGPALVKPTQTLTLTCTFSGFSLSTSGMGVGWIRQPPGKALEWLAHIWWDDDKFYNPSLKSQLTISKDTSKNQVVLTMTNMDPVDTATYYCARITGTRYFDYWGQGTTVTVSS
VL: DVQMTQSPSSLSASVGDRVTITCKASQDINKFIAWYQQKPGKAPKLLIHYTSTLQPGIPSRFSGSGSGTDFTFTISSLQPEDIATYYCLQYGNLWTFGGGTKVEIK
notes: Humanized SBT-002; VH fused to human IgG1 Fc null, VL to human Ck; Tested as CHO supernatant
In experiment [2], B2 came in with a Kd of 2.44 nM and a koff of 0.000424 s⁻¹.

B3: hSBT-002a (antibody, V domains shown)
VH: B2 VH with Q68R
VL: B2 VL with V2I, H49Y, I58V
notes: as for B2
In experiment [2], B3 had a Kd of 4.89 nM and an off-rate constant (koff) of 0.000722 s⁻¹.

B4: hSBT-002e (antibody, V domains shown)
VH: B2 VH with Q68R, I100L
VL: B2 VL with T69R, F71Y
notes: as for B2
In experiment [2], B4 registered a dissociation constant Kd of 1.54 nM and an off-rate constant (koff) of 0.000268 s⁻¹.

B5: hSBT-002c (antibody, V domains shown)
VH: B2 VH with Q68R, I100L
VL: B2 VL
notes: as for B2
In experiment [2], B5 gave a Kd of 2.27 nM and a koff of 0.000446 s⁻¹.

B6: hSBT-002d (antibody, V domains shown)
VH: B2 VH
VL: B2 VL with T69R, F71Y
notes: as for B2
Turning to B6, in experiment [2], the Kd worked out at 1.73 nM and the off-rate (koff) amounted to 0.000301 s⁻¹.

B7: chimeric SBT-001 (antibody, V domains shown)
VH: EVQLQQSGAELVKPGASVKISCKASGYTFTDYNMDWVKQSHGKSLEWIGDINPNYESTSYNQKFKGKATLTVDKSSSTAYMEVRSLTSEDTAVFYCARDKGWYFDVWGAGTTVTVSS
VL: ENVLTQSPAIMSASLGEKVTMSCRASSSVKNMYWYQQKSDASPKLWIYYTSNLAPGVPARFSGSGSGNSYSLTISSMEGEDAATYYCQQFTSSPYTFGGGTKLELK
notes: also called chSBT-001
On to B7, for which the dissociation constant Kd worked out at 1.8 nM in experiment [3] and 58.3 nM in experiment [4].

B8: chimeric SBT-003 (antibody, V domains shown)
VH: QIQLVQSGPELKKPGETVKISCKASGYTFTDYSMHWVKQAPGKGLKWMGWINTETGEPTYADDFKGRFAFSSETSTSTAYLQINNLKNDDTTTYFCATYYGSSYVPDYWGQGTSLTVSS
VL: DIVMTQSHKFMSTSVGDRVSITCKASQNVGTAVAWYQHKPGQSPKLLIYWTSSRHTGVPDRFTGSGSGTEFTLTISNVQSEDLADYFCHQYSDYPYTFGGGTKLEIK
notes: also called chSBT-003
As for B8, in [5], the “% CD4^+ ab^+ Donor 1” value worked out at 0.7%, the “% CD4^+ ab^+ Donor 2” value came to 1.2%, the “% CD8^+ ab^+ Donor 1” value came to 0.6% and the “% CD8^+ ab^+ Donor 2” value was 2.1%. In the experiment with human TNFR2 on cells, the “% CD4^+ ab^+ Donor 1” value turned out to be 44.4%, the “% CD4^+ ab^+ Donor 2” value is 35%, the “% CD8^+ ab^+ Donor 1” value stood at 23.8% and the “% CD8^+ ab^+ Donor 2” value came out at 17.7%. For the same molecule, the “Average Relative IC50” value in the experiment with soluble human TNFR2 [6] came out at 5.33 nM. Moreover, in experiment [3], the affinity, expressed as Kd, was 0.25 nM. The same molecule gave a Kd in experiment [4] of 470 nM. Also, the “Relative IC50” value with soluble human TNFR2 [7] came out at 5.79 nM. Besides, the IC50 with soluble human TNFR2 [8] stood at 14.4 nM.

B9: chimeric SBT-003 Fc null (antibody, V domains shown)
VH: B8 VH
VL: B8 VL
notes: also called chSBT-003n
As to B9, the affinity in experiment [1], expressed as Kd, was 1 nM.

The values above are taken from patent US20190202925A1 (OPI VI IP HOLDCO, published 2019).
